The nature of this data set: label from the status in PepcDB records.

As for “MEKRQDNNEIERRILKYEQYVKEHPKKAYGYYCLGRLHMMDGKYKLAEEYFKKSLAVDGNYTFSIIGLIEACVFRRKFLKAVYLFSKNRQKIIDKYIYRVKLVRGVSSFYSKSGFFRTEAKDFLSQLSLKNSIRSIKKLVDSEANNIVLKLILCMYYLNFGEKSFYIIQLFKTCIYWDGLEDSFRWALIRRLSEFGEKLYYDANIARKFATVPDASCTDEYVDLIFSSALDREKGGRMADIYRTAEKYNKNISPRLIWRYVKWSNENSFYDPSVYDCCKKLVDMGWMDSVVADTMLKFRERNAVKLGDETERALRLFGYMD”, the protein production entry is on record as “failed”.

For the sequence “MEKSLETVPGLDLSGEDIEMYYQYVRFVDRFLRFNRNYQIEYFKLSYPGDGSSEREVDLLKRWIDTVIQLKVKDLDFFDYSWEWGFDNFQLPSTIYICESLVSLKLSTVTLPSVKSVSLPFLRVLKLGAVKFADHLDLETLISGCTALETLAIRFFDRVQVLQVSSQSLLSFTHVAPKLVFTHAVRKPLAEKDLSIVIDAPRLEYLKLSDHQTSSFIIKNPGSLVAVDIDINLSSGFDSRNMIRDFLVGISSVKNMTISSIILKFYDYRFKMLPTFLEICPNLKSLILKSTEELGIKESSMFSGPQDFLPSLEYVEMKMPLKKGLLLEIRMLVGYFLEKATILKKLTLCLDDYRKRKESLIPRILAIPRISTSCEVVVL”, the protein production result is reported as “failed”.

As for “MEKSLLVIVRHKPGRTRLLIRALQSINDQTFKKINIIIFCMEEELKCHNVDDFYLKELSNIYSVIYDENCIFNAIKMSESNYLCFMDDDDSWAPEYVSRLLSVLANIQSTYSSVNAIACHTNKVAEIAENNRIIINSTQPWNHYLNAGPVSFDVIYYRNSIPLSSCLFDRNSVIDVIESHKLSSPAFFWPFFIHYLAENDVWILPEALAFYHFRENDDFEFGNYTVINNELFDIECKIAENKMMRSIDDSSLLNVLLSNIANNSLFHKISYIENKIK”, the protein production result is recorded as “failed”.

As for “MEKSNLYKVDEFGVKNYNYGILAILSFVLFAFINISLGYVTFVAETAVEGSPVKNYADAFWLMLMSSTTIGFGDVYPITLEGRIAVFTMFILGVGILGGVGAVFANKIFGFADTNIKNRELRQQNEEILLQNDKIYQKLTALEDKLEAFNRETK”, the protein production entry is given as “failed”.

“MEKSNVFLLSILLMASLFSISHAFQLWGYAIDRVSIRGVVYCSLDGDPSAPPVSNATVYIECPGGSNSTLAQAVTNQVGVFTLPWLMFIANYAIGASRQ”: the protein production entry is on record as “failed”.

For the sequence “MEKVHLYWNLRYNCWFLVSVEHLWYSQGKVPGVHGFVILPVFLTLLEQPFSTTKKDITQLRSPSSESLSSSNAVNYRAIRGSHSYFGIYGI”, the protein production entry is “failed”.

As to “MEKVLTDLDRVNIAKQEYELGSQLDTLVKIMSQDKVLPIGKVAHVQDGGKETGEQIYTITPNGTLDKPEDVKEVTVLFKGSTAPFGGDDWKTDWFKNDIPIASKLLLKKFGSQSVSHKQGTKQLEQSAHLLKEVMNKYPNAKISVYGHSLGSMNAQYAIAELDDNQIYRVQGAWIYNGPNLYSILTDKQKEQVDKIKGVVNNYVDSKDKIGIGYPKEGSDNAVGIVKIVDSKAVSGGSWVANFTNQHIWGGYQYNPDGSLKLAEDKFAYKENYSVVHTNVNQRMHAIKAKLSSFKSTGKEVSKNQAIFLDSQQAKVISSGLVTISKEAVEEVKKVEQKAVAKAEELYQSLKVAPTGVTELSPQELEEAYAQSGVSYASIVGEAQTFFSNKTQAAESISHAYVELENQINKGVEAMLRQDSNLSGEFKQWH”, the protein production entry was “failed”.

As to “MEKVTLIATATMGLEALVAREVKDLGYEDVKVENGKVTFTSDVAAIPRANLWLRTADRVKLKVGEFKALTFDELFEKTKSLPWADIIPVHAEFPVIGRSVKSKLFSVSDCQAIVKKAVVESMKKRYKRGWFDENGPLYRIEVALHKDIATLTIDTSGTGLHKRGYRYLHSQAPLKETLAAAIIMLSHWKSDRPFADPFCGSGTIPIEAAMIGQNIAPGFNREFVSEQWHWIGSEHWDRAREEVEDMANYDQPLDILGSDIDHRMVELAQNNAMEAGFGDLISFKQMQVTDFRHKEEYGILIGNPPYGERIGEREEVEKMYQKMGEVFREHLETWSIYILTSHEGFEELYGKRATKKRKLYNGNIKTDYYQFFGPRPPRHPEGSQQ”, the protein production entry is “failed”.

For the sequence “MEKYSQVIFDKNTVEFVTVAAEFCGFLERARDMKRYDFVDTALKILPLLYLKATLLPPCEPIGEDEPETFVTEEDYELIRRAIAGVLGAKDDYLEVFLPDMVYSDTPIKKCISEDLADIYQDLKDFISVFQLGLNETMNDSLVVCKEHFREFWGQRLVNTMRALHDVKYSPLEHHHHHH”, the protein production result is recorded as “not failed”.

For the sequence “MELGLYTFADVNPNPADGRGPEGARRLRELLEEIELADQVGLDVFGLGEHHRPDYVVSSPSTVLAAAAVKTKNIRLTSAVSVLSSDDPVRVFQQFSTVDLLSNGRAEIMAGRGSFIESYPLFGYDLEDYDVLFAEKLDLLLALREQEVVTWSGTKHPAINGRGVYPRPLQERLPVWIAVGGTPQSVARAGAMGLPVALAIIGGEYRRFAPLFDLYHEAARRAGQEKTKLRTSINVHGFIADTTDKAADQFYGPQAEVMNRIGRERGWGPTNRAHFDAARGPEGNLFLGEPELVAEKIIKAHGVFKNDRFLLQMAIGLMPHDQIMRGIELYGTKVAPLVRKELTGSADPVKATA”, the protein production result is given as “not failed”.

On to “MELKQSLSTHLEAEKPLRRYGAVEETAWKTERLGRNQLDIISMAETTMMPEEIELEMAKIQRLREVLVRRESELRFMMDDIQLCKDIMDLKQELQNLVAIPEKEKTKLQKQREDELIQKIHKLVQKRDFLVDDAEVERLREQEEDKEMADFLRIKLKPLDKVTKSPASSRAEKKAEPPPSKPTVAKTGLALIKDCCGATQCNIM”, for which the protein production entry is “failed”.

Consider “MELPEKPQLYLITPPEFELSSFPDVLARVLDTHKVACVRLELAARDEDTVSRAADALREVTHARDIALVLSDHSVLADRLGLDGVHLSDAARSVRETRKLLGEDAIIGSFCGTSRHDGMSAGEAGADYICFGPVAASSLGDGSYVAQEVFEWWSEFIEVPVVAEGGLDAARIAQLTPFTDFFAFGQEVWSAEYPAQRLGELLEAMG”, for which the protein production result was “failed”.

“MELPVVVQQALGDNAPGVSFRSVSQIDTGHLLRMVLLSDDQGNLQAICRRNDMLDLEALNKRLGRDLRMMQRREQVRVRQKAGLQELPALPSLTGWPTVVDRRVDELEAVALELGEQDLGLMMPAEDFRQLTAKAARHDFAVDTANISVNLDNHAADRDQLHSAIKRFTGLRIQQRLEDTLELPPLPETAQRIIHLRVNPNAVMGDLVDVVESDPSLAAQVVSWASSSFYAAAGRVHSVHDAVSRVLGFDLVMNLAMGLALGRALKHPQDHPDGYVDYWQQAIWQAQSAGILASMMPRGQRPLFGLAYLAGLLHNFGHLVLAQVFPPHFKLVCRSLEVSPHIDSSVIEHYLLGITREQIAAQLMENWGMPDEVTLAIRYQKNPAYDGPHNVYARLLWLGRQLLTERGVALGAGESATQAVYDELGLDRELVQEQFDELVRRKDSIMAMAGMMSQGG”: the protein production entry is “not failed”.

Take “MELQLAIDLLNKEEAAKLAQKVEEYVDIVEIGTPIVINEGLPAVQHLNENINNAKVLADLKIMDAADYEVSQAVKYGADIVTILGVAEDASIKAAVEEAHKHGKALLVDMIAVQNLEQRAKELDEMGADYIAVHTGYDLQAEGKSPLDSLRTVKSVIKNSKVAVAGGIKPDTIKDIVAEDPDLVIVGGGIANADDPVEAAKQCRVAIEGK”: the protein production result is “failed”.

As to “MELREWQSKIAEKIVEALRNNFLVSLQAPTGSGKTLFALYTALKVKPKVAFVVRTHNEFFPVYRELSLHFKDKKYGFLVGKSSACVFSSSDVDAQDIYCNGCEIFNASAVTVTDSPKVSLNKLKEEGKKLGFCPYYSLLETIKTADVILLTYPYLFIPWLRESLDINWEDYVVIVDEAHNIENVSNIEEKKLNKRIIEMAISQSHSQNVKVILERLKENVEKAVYSEDKYILIEKDKLDNILPSNEEIEILSEEYDEIRKIMIKNKTVSRNYLGSILRFFDLVNDEGIRVFSYSGSLIAKYIIPSYFTDILNDEKITYMLMSGTMQPLDYLRNIIGIKRKILYIDAEKVMKKRLTGTYECLISIDVTTTYSLRSEQMARKYASYLLKIFYNSRRHVLAIFPSYEFMRIVSKFLNIRYLAEDTETSIEEIMSNLKKEKTIIMGIARGKLAEGIEIVENGSSLISDVAMVGIPYPPIDDYLKIRVEEISKILKKDISNELISIQALIAVKQSIGRAIRGPTDNATIWLLDKRYDSLWWKKELNCLNARKIKL”, the protein production entry is listed as “failed”.

“MELSAVGERVFAAEALLKRRIRKGRMEYLVKWKGWSQKYSTWEPEENILDARLLAAFEEREREMELYGPKKRGPKPKTFLLKAQAKAKAKTYEFRSDSARGIRIPYPGRSPQDLASTSRAREGLRNMGLSPPASSTSTSSTCRAEAPRDRDRDRDRDRERDRERERERERERERERERERGTSRVDDKPSSPGDSSKKRGPKPRKELPDPSQRPLGEPSAGLGEYLKGRKLDDTPSGAGKFPAGHSVIQLARRQDSDLVQCGVTSPSSAEATGKLAVDTFPARVIKHRAAFLEAKGQGALDPNGTRVRHGSGPPSSGGGLYRDMGAQGGRPSLIARIPVARILGDPEEESWSPSLTNLEKVVVTDVTSNFLTVTIKESNTDQGFFKEKR”: the protein production entry was “failed”.

Turning to “MELSFRIWLGGLGMLISLLILYFKAVPELEEFHKNCTLKQNWEQPFKKVKNLTLILSISLLSIIGFFLMFINLVNINPI”, the protein production result is on record as “failed”.

As for “MELVIILLALSLLMFVAYRGFSVILFAPIFALFAVFLTEPSYVLPFFSNIFMEKMVGFIKLYFPVFLLGAIFGKVVEMSGIADSIAKTIIELVGEKRTILAIVLMGAILTYSGVSVYVVVFAVYPFAAKLFRQANIPKRLIPGTIVLGAVTFTMDALPGSPQIQNVIPTTFFKTDIYAAPILGIVGAIFVLTVGLLYLESRRKKAKAEGEGYFGFNDGNTEMAASLQVEQKNMPLTNNIEITRAQQLITFIPLILVGVMNKVFTIMIPKWYPSGFDFSAIGMKAFGKVELSAVVGIWSVELALIIGILTTLLLYWKRVVTGFQAGLNTSIGGALLATMNTGAEFGFGGVIAALPGFAIMRDGISATFTNPLVNGAVTTNILAGITGSASGGMGIVLSAMGDKFIAAANQFDIPLEVMHRIVSMASGGMDTLPHNGAIITILTVTGLTHKQSYKDIFAITILKTVAVFLVIAFYTLTGLY”, the protein production entry is listed as “failed”.

Take “MELWIGITFASAFLQNLRSTLQKHLKGMMGTTGATFVRFVFGMPFALAYLAFLHLGLGRPLPVPNMSFAGWATVGAMAQIAATFLLVHLFSFRNFAVGTAYSRTEPAQAALFALIFIGESITGGTLAAIAISVAGVMLISVARTQVTPASFLTSIFSRTAGIGLASGAFFGLSSVAYRSASLALAPSLPAPDAMMQAGFTLVVVIVMQTVSMFLWIIWREREELPRIAKVWKPSLAVGFVGATASFGWFTAMTLQQAAVVKALAQVEMLFAFASTVLFFKEKINRLELSGCMLIVVGVLSLLAFG”: the protein production entry was “failed”.

Turning to “MELYQDNKLNNVGNIEINQCDGVIKKENDLHVSVIKPITKKIIHCDNMENKMKINAFYKPVELVEEIKNYVHKGDTHLVKLYEDFKNKKDKKVKMKNEYMTKLKNLHILNMINNKKKENECGVVNKNNIVHFNLFNENEDVTPKIETVYIPKLEKNIEVVSHLKENVNVDYTYMVPKPVVIPIEVPILKFRDHFKIIPIRKKIIPVIKYTDNIIYVDCCVEKPYIVYENVIIPVPCDIPIEQKKYIDKVPPI”, the protein production entry is “failed”.

For “MEMEERKLKILQAIINDYINNGEPVGSRTIAKKYNLGISSATIRNEMADLEEMGYIEQLHTSSGRKPSDKGYRLYVDRLMEIPSMSVEEEMLIKAKIIDSALYEIDKLVKQAMSLVSEMTKLTCVVKSLSARKSYIKSISLINIEPNMILCVFITDSGMIKNSIIRVKSNIENSSLERIANILNSKLKGLTIEQINLEVINNIKKDLREYGHIFDCIMPNLYDILREADSTEVYKEGTMNIFNYPEFKDIEKAKEFLSVIDDRRILDTLFNASGGVTVNIGNENSIKEARDFSVVSSVYKYNGRPLGTIGIIGPTRIPYSKVIKVIMEVVDQINNNLDKMNNS”, the protein production entry is “failed”.

These data come from a protein production outcome set (Wang et al. 2014).
